Legend:
[1] = biological target: T1, Bee Hyaluronidase (Apis mellifera (honeybee)); experiment: SPR; ProteOn XPR36 (Bio-Rad), GLC chip; IgG captured on amine-coupled anti-human capture antibody (Human Antibody Capture Kit), antigen as analyte; 1x HBS-EP+ pH 7.4 with BSA 1 mg/ml; equilibrium or kinetic Langmuir model; conditions: both partners purified
T1 construct: also called the main allergen in bee venom

[2] = biological target: T1, Bee Hyaluronidase; experiment: SPR; Biacore 4000, CM5 chip; IgG captured on amine-coupled anti-human capture antibody (Human Antibody Capture Kit), antigen as analyte; 1x HBS-EP+ pH 7.4 with BSA 1 mg/ml; equilibrium or kinetic Langmuir model; apparent KD; conditions: both partners purified

T1 sequence (heavy, as listed by the source): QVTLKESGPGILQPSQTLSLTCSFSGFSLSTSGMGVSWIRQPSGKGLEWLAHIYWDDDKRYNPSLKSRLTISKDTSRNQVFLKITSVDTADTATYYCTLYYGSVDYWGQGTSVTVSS

Binder | Kd [1] | Kd [2]
WT 2J88 antibody (antibody, V domains shown, heavy-chain variable domain of the antibody in PDB 2J88; human IgG1 heavy constant region, from the vector pFUSEss-CHIg-hG1; light-chain variable domain of the antibody in PDB 2J88; human kappa constant region, from the vector pFUSEss-CLIg-hk; the abstract says one lambda and one kappa antibody were tested; Expressed as IgG (human IgG1 constant regions from pFUSE vectors) with the variable …) VH: not shown VL: DIQMTQSPASLSASVGETVTITCRASENIYSYLTWYQQKQGKSPQLLVYNAKTLAEGVPSRFSGSGSGTQFSLKISSLQPEDFGNYYCQHHYGTRTFGGGTRLEIK | 9.2 nM | –
L14_7 (antibody, V domains shown, as the heavy-chain variable domain of m1 (PDB 2J88); human IgG1 heavy constant region, from the vector pFUSEss-CHIg-hG1; as the light-chain variable domain of m1 (PDB 2J88) with a designed L1 (cluster L1-11-2, six amino acid differences) and one difference in the L4 (DE) loop; human kappa constant region, from the vector pFUSEss-CLIg-hk; kappa inferred as for m1; IgG; Computational design (RAbD) …) VH: not shown VL: DIQMTQSPASLSASVGETVTITCRSSRDIKDYITWYQQKQGKSPQLLVYNAKTLAEGVPSRFSGSGSGTEFSLKISSLQPEDFGNYYCQHHYGTRTFGGGTRLEIK | 0.77 nM | –
WT 2J88 antibody Y38K (antibody, V domains shown, as the heavy-chain variable domain of m1 (PDB 2J88); human IgG1 heavy constant region, from the vector pFUSEss-CHIg-hG1; as the light-chain variable domain of m1 (PDB 2J88) with Y38K in L1; human kappa constant region, from the vector pFUSEss-CLIg-hk; kappa inferred as for m1; IgG; Position 38 is most likely AHo numbering; source: 293F cells, transfected (pFUSE vectors), purified (rProtein A …)) VH: not shown VL: DIQMTQSPASLSASVGETVTITCRASENIKSYLTWYQQKQGKSPQLLVYNAKTLAEGVPSRFSGSGSGTQFSLKISSLQPEDFGNYYCQHHYGTRTFGGGTRLEIK | – | 4.3 nM
